Experimental data: US20060171977A1, “Methods for the identification of fungicidally active compounds based on thymidylate kinase” (priority 2004, published 2006)

Tests used:
[1] = substrate: Cc1cn([C@H]2C[C@H](O)[C@@H](COP(=O)(O)O)O2)c(=O)[nH]c1=O; assay: KM determination of thymidylate kinase substrates (coupled PK/LDH assay, Lineweaver-Burk plot); format: biochemical, Saccharomyces cerevisiae; details: other: substrate of thymidylate kinase from yeast; FIG. 5
Description: (§1) FIG. 4: Graphical illustration of the kinetics of conversion of thymidylate and ATP by various concentration of thymidylate kinase in the assay. In an assay volume of 50 μl, 500 μM thymidylate, 500 μM ATP, 300 μM NADH, 400 μM PEP (phosphoenol pyruvate), 0.1 U pyruvate kinase and 0.1 U lactate dehydrogenase were employed. The conversion occurred on the basis of a decrease in absorption at 340 nm due to the reaction of the released ADP with PEP and NADH to form lactate and NAD.
(§2) FIG. 5: Lineweaver-Burk plot for determination of the KM value of dTMP (A) and ATP (B). The measured values are illustrated according to Lineweaver and Burk, i.e. 1/Vo=1/Vmax+1/S×(KM/Vmax), where Vo is the original reaction speed, Vmax is the maximum attainable reaction speed and S is the substrate concentration. Vmax and KM can then be calculated as the intercepts on the vertical axis and horizontal axis, 1/V and 1/KM. The KM value for dTMP is 0.17 mM […], the KM value for ATP is 0.16 mM […].
(§3) A preferred method (see Example 3) makes use of the fact that an adenosine diphosphate molecule (ADP) is released during the thymidylate kinase reaction. The activity, or the increase or decrease in activity, of the polypeptide according to the invention can thus be determined via detection of the resulting ADP. […]

[2] = substrate: Nc1ncnc2c1ncn2[C@@H]1O[C@H](COP(=O)(O)OP(=O)(O)OP(=O)(O)O)[C@@H](O)[C@H]1O; assay: as above; format: biochemical, Saccharomyces cerevisiae; details: other: substrate of thymidylate kinase from yeast; FIG. 5
Description: as §1, §2, §3

B1: thymidylate kinase from yeast (Saccharomyces cerevisiae S288C) (protein)
chain: MMGRGKLILIEGLDRTGKTTQCNILYKKLQPNCKLLKFPERSTRIGGLINEYLTDDSFQLSDQAIHLLFSANRWEIVDKIKKDLLEGKNIVMDRYVYSGVAYSAAKGTNGMDLDWCLQPDVGLLKPDLTLFLSTQDVDNNAEKSGFGDERYETVKFQEKVKQTFMKLLDKEIRKGDESITIVDVTNKGIQEVEALIWQIVEPVLSTHIDHDKFSFF
notes: His6 (with pDest17 vector linker) (N); made in house; host or cells: E. coli BL21(DE3)pLysS
Km [1]: 170 µM
Km [2]: 160 µM
